Test results taken from patent US20240301076A1 (CEPHALON, published 2024).
Where a chain is given by its changes, count along the chain named. Names may count otherwise.

B1: BKO-4A8 variant VH M34H (antibody, human IgG4 S228P, lambda, V domains shown)
VH: EVQLLESGGGLVQPGGSLRLSCAASGFTFSSSTHSWVRQAPGKGLEWVSAISGRGRNTYYADSVKGRFTISRDNSRNTLYLQMNSLRAEDTAVYYCAIQMGYWGQGILVTVSS
VL: QSALTQPPSASGSPGQSVTISCIGTSSDVGGYNYVSWYQQHPDKAPKLMIYEVNKRPSGVPDRFSGSKSGNTASLTVSGLQAEDEADYYCSSYAGNNNFGVFGGGTKLTVLG
notes: IgG4 S228P, lambda; parental light chain; also called 4A8 VH M34H
B2: BKO-4A8 variant VH I94K (antibody, human IgG4 S228P, lambda, V domains shown)
VH: B1 VH with H34M, I98K
VL: B1 VL
notes: IgG4 S228P, lambda; parental light chain; also called 4A8 VH I94K
B3: BKO-4A8 variant VH M34Q (antibody, human IgG4 S228P, lambda, V domains shown)
VH: B1 VH with H34Q
VL: B1 VL
notes: IgG4 S228P, lambda; parental light chain; also called 4A8 VH M34Q
B4: BKO-4A8 variant VL N94W (antibody, human IgG4 S228P, lambda, V domains shown)
VH: B1 VH with H34M
VL: B1 VL with N96W
notes: IgG4 S228P, lambda; parental heavy chain; also called 4A8 VL N94W
B5: BKO-4A8 variant VL N94L (antibody, human IgG4 S228P, lambda, V domains shown)
VH: B1 VH with H34M
VL: B1 VL with N96L
notes: IgG4 S228P, lambda; parental heavy chain; also called 4A8 VL N94L
B6: BKO-4A8 variant VL V97K (antibody, human IgG4 S228P, lambda, V domains shown)
VH: B1 VH with H34M
VL: B1 VL with V101K
notes: IgG4 S228P, lambda; parental heavy chain; also called 4A8 VL V97K
B7: BKO-4A8 variant VL N52D (antibody, human IgG4 S228P, lambda, V domains shown)
VH: B1 VH with H34M
VL: B1 VL with N54D
notes: IgG4 S228P, lambda; parental heavy chain; also called 4A8 VL N52D
B8: BKO-4A8 variant VL N94A (antibody, human IgG4 S228P, lambda, V domains shown)
VH: B1 VH with H34M
VL: B1 VL with N96A
notes: IgG4 S228P, lambda; parental heavy chain; also called 4A8 VL N94A
B9: BKO-4A8 variant VL N95aL (antibody, human IgG4 S228P, lambda, V domains shown)
VH: B1 VH with H34M
VL: B1 VL with N98L
notes: IgG4 S228P, lambda; parental heavy chain; also called 4A8 VL N95aL
B10: BKO-4A8 variant VL N95aD (antibody, human IgG4 S228P, lambda, V domains shown)
VH: B1 VH with H34M
VL: B1 VL with N98D
notes: IgG4 S228P, lambda; parental heavy chain; also called 4A8 VL N95aD
B11: BKO-4A8 variant VL K53H (antibody, human IgG4 S228P, lambda, V domains shown)
VH: B1 VH with H34M
VL: B1 VL with K55H
notes: IgG4 S228P, lambda; parental heavy chain; also called 4A8 VL K53H
B12: BKO-4A8 variant VL R54Q (antibody, human IgG4 S228P, lambda, V domains shown)
VH: B1 VH with H34M
VL: B1 VL with R56Q
notes: IgG4 S228P, lambda; parental heavy chain; also called 4A8 VL R54Q
B13: BKO-4A8 variant VL Y91A (antibody, human IgG4 S228P, lambda, V domains shown)
VH: B1 VH with H34M
VL: B1 VL with Y93A
notes: IgG4 S228P, lambda; parental heavy chain; also called 4A8 VL Y91A
B14: BKO-4A8 variant VL N95aK (antibody, human IgG4 S228P, lambda, V domains shown)
VH: B1 VH with H34M
VL: B1 VL with N98K
notes: IgG4 S228P, lambda; parental heavy chain; also called 4A8 VL N95aK
B15: BKO-4A8 variant VL N95aH (antibody, human IgG4 S228P, lambda, V domains shown)
VH: B1 VH with H34M
VL: B1 VL with N98H
notes: IgG4 S228P, lambda; parental heavy chain; also called 4A8 VL N95aH
B16: BKO-4A8 variant VL V97A (antibody, human IgG4 S228P, lambda, V domains shown)
VH: B1 VH with H34M
VL: B1 VL with V101A
notes: IgG4 S228P, lambda; parental heavy chain; also called 4A8 VL V97A
B17: BKO-4A8 variant VL N95aY (antibody, human IgG4 S228P, lambda, V domains shown)
VH: B1 VH with H34M
VL: B1 VL with N98Y
notes: IgG4 S228P, lambda; parental heavy chain; also called 4A8 VL N95aY
B18: BKO-4A8 combinatorial variant 1b (antibody, human IgG4 S228P, lambda, V domains shown)
VH: B1 VH with H34Q, N57S
VL: B1 VL with N54S, N96S
notes: IgG4 S228P, lambda
B19: BKO-4A8 combinatorial variant 2b (antibody, human IgG4 S228P, lambda, V domains shown)
VH: B1 VH with H34Q, A40P, N57S
VL: B1 VL with N54S, N96S
notes: IgG4 S228P, lambda
B20: BKO-4A8 combinatorial variant 6c (antibody, human IgG4 S228P, lambda, V domains shown)
VH: B1 VH with H34Q, A40P, N57S, R76K, I98K, M100K
VL: B1 VL with D43G, N54S, N96S
notes: IgG4 S228P, lambda
B21: BKO-4A8 combinatorial variant 10c (antibody, human IgG4 S228P, lambda, V domains shown)
VH: B1 VH with H34M, I98K, M100K
VL: B1 VL with D43G, N54S, N96S
notes: IgG4 S228P, lambda
B22: BKO-4A8 combinatorial variant 6b (antibody, human IgG4 S228P, lambda, V domains shown)
VH: B1 VH with H34Q, A40P, N57S, R76K, I98K, M100K
VL: B1 VL with N54S, N96S
notes: IgG4 S228P, lambda
B23: BKO-4A8 combinatorial variant 5b (antibody, human IgG4 S228P, lambda, V domains shown)
VH: B1 VH with H34Q, A40P, N57S, R76K, M100K
VL: B1 VL with N54S, N96S
notes: IgG4 S228P, lambda
B24: BKO-4A8 combinatorial variant 10b (antibody, human IgG4 S228P, lambda, V domains shown)
VH: B1 VH with H34M, I98K, M100K
VL: B1 VL with N54S, N96S
notes: IgG4 S228P, lambda
B25: BKO-4A8 combinatorial variant 5c (antibody, human IgG4 S228P, lambda, V domains shown)
VH: B1 VH with H34Q, A40P, N57S, R76K, M100K
VL: B1 VL with D43G, N54S, N96S
notes: IgG4 S228P, lambda
B26: BKO-4A8 combinatorial variant 7b (antibody, human IgG4 S228P, lambda, V domains shown)
VH: B1 VH with H34Q, A40P, N57S, I98K, M100K
VL: B1 VL with N54S, N96S
notes: IgG4 S228P, lambda
B27: BKO-4A8 combinatorial variant 9c (antibody, human IgG4 S228P, lambda, V domains shown)
VH: B1 VH with H34Q, N57S, R76K, M100K
VL: B1 VL with D43G, N54S, N96S
notes: IgG4 S228P, lambda
B28: BKO-4A8 combinatorial variant 3c (antibody, human IgG4 S228P, lambda, V domains shown)
VH: B1 VH with H34Q, A40P, N57S, R76K
VL: B1 VL with D43G, N54S, N96S
notes: IgG4 S228P, lambda
B29: BKO-4A8 combinatorial variant 7c (antibody, human IgG4 S228P, lambda, V domains shown)
VH: B1 VH with H34Q, A40P, N57S, I98K, M100K
VL: B1 VL with D43G, N54S, N96S
notes: IgG4 S228P, lambda
B30: BKO-4A8 combinatorial variant 2c (antibody, human IgG4 S228P, lambda, V domains shown)
VH: B1 VH with H34Q, A40P, N57S
VL: B1 VL with D43G, N54S, N96S
notes: IgG4 S228P, lambda
B31: BKO-4A8 combinatorial variant 4c (antibody, human IgG4 S228P, lambda, V domains shown)
VH: B1 VH with H34Q, A40P, N57S, M100K
VL: B1 VL with D43G, N54S, N96S
notes: IgG4 S228P, lambda
B32: BKO-4A8 combinatorial variant 4b (antibody, human IgG4 S228P, lambda, V domains shown)
VH: B1 VH with H34Q, A40P, N57S, M100K
VL: B1 VL with N54S, N96S
notes: IgG4 S228P, lambda
B33: BKO-4A8 combinatorial variant 9b (antibody, human IgG4 S228P, lambda, V domains shown)
VH: B1 VH with H34Q, N57S, R76K, M100K
VL: B1 VL with N54S, N96S
notes: IgG4 S228P, lambda
B34: BKO-4A8 combinatorial variant 3b (antibody, human IgG4 S228P, lambda, V domains shown)
VH: B1 VH with H34Q, A40P, N57S, R76K
VL: B1 VL with N54S, N96S
notes: IgG4 S228P, lambda
B35: BKO-4A8 combinatorial variant 1c (antibody, human IgG4 S228P, lambda, V domains shown)
VH: B1 VH with H34Q, N57S
VL: B1 VL with D43G, N54S, N96S
notes: IgG4 S228P, lambda

target: T1, human CXCR2 (human, UniProt P25025 1-360); assay: cell-based or functional assay
T1 sequence: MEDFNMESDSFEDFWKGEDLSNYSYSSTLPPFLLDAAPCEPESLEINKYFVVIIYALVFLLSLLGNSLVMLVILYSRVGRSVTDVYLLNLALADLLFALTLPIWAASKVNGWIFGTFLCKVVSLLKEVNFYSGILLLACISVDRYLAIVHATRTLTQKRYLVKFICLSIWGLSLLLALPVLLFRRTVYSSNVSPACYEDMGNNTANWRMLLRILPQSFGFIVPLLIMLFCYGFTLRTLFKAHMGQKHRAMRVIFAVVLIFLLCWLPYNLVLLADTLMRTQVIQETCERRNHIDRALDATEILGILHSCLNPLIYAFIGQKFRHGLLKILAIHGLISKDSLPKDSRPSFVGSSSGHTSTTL

| Binder | IC50, CXCL1, Tango assay [nM] | IC50, CXCL8, Tango assay [nM] |
| --- | --- | --- |
| B1 | 0.186 | 0.107 |
| B2 | 0.078 | 0.071 |
| B3 | 0.242 | 0.0776 |

target: T1, human CXCR2; assay: flow cytometry, CXCR2-transfected Expi293F cells
Experimental: (§1) Harvested cells were resuspended in FACS buffer (1×PBS+0.5% (w/v) bovine serum albumin (BSA)+2 mM EDTA pH 7.2). Approximately 2×10⁵ cells were added per well in a 96-well round-bottomed plate. Cells were pelleted by centrifugation at 400 g for 5 mins at 4° C. and supernatants discarded. 25 μL of each test antibody or control antibody was added to the cells and incubated for 30 minutes at 4° C. Cells were washed twice in 100 μL FACS buffer followed by centrifugation at 400 g for 5 mins at 4° C.
(§2) For detection, 50 μL of secondary antibody (Table 2) was added to relevant samples. Commercially available antibodies that bound to transfected CXCR family members were used as positive controls to ensure that the cells were expressing the receptors. Cells were washed twice in 200 μL of FACS buffer followed by centrifugation at 400 g for 5 mins at 4° C. Before sample acquisition, cells were resuspended in 100 μL of FACS buffer. Samples were acquired using the high throughput sampler on a FACSCanto™ II cytometer (Beckton-Dickinson).
Each variant heavy chain was co-expressed with the parental light chain and vice versa.

| Binder | Fold change in binding relative to BKO-4A8 [fold] |
| --- | --- |
| B4 | 0.63 |
| B1 | 0.8 |
| B5 | 0.88 |
| B6 | 1 |
| B7 | 1.7 |
| B8 | 1 |
| B9 | 1.7 |
| B10 | 2.3 |
| B11 | 1.4 |
| B12 | 1.6 |
| B13 | 1.7 |
| B14 | 1 |
| B15 | 1.3 |
| B16 | 1.7 |
| B2 | 0.7 |
| B3 | 1 |
| B17 | 1.7 |

target: T1, human CXCR2; assay: flow cytometry, CXCR2-transfected Expi293F cells; remark: another data set of the same source
Experimental: as §1, §2
Each heavy chain was co-expressed with each light chain to produce a sequence optimized antibody variant. Antibodies were purified and tested for CXCR2 binding activity as described in General Methods.

| Binder | EC50 [nM] | Fold Improvement over 4A8 WT [fold] |
| --- | --- | --- |
| B18 | 0.3 | 1.33 |
| B19 | 0.4 | 1.25 |
| B20 | 0.9 | 0.44 |
| B21 | 0.5 | 1 |
| B22 | 0.4 | 1 |
| B23 | 0.4 | 1.25 |
| B24 | 0.3 | 1.67 |
| B25 | 0.4 | 1.25 |
| B26 | 0.8 | 0.63 |
| B27 | 6.4 | 0.14 |
| B28 | 0.2 | 2 |
| B29 | 1 | 0.5 |
| B30 | 0.3 | 1.67 |
| B31 | 0.4 | 1.25 |
| B32 | 0.4 | 1.25 |
| B33 | 0.3 | 3 |
| B34 | 0.1 | 4 |
| B35 | 0.3 | 1.33 |
